One series addresses T1, KNOTTED1 (KN1) (UniProt P24345).
T1 sequence: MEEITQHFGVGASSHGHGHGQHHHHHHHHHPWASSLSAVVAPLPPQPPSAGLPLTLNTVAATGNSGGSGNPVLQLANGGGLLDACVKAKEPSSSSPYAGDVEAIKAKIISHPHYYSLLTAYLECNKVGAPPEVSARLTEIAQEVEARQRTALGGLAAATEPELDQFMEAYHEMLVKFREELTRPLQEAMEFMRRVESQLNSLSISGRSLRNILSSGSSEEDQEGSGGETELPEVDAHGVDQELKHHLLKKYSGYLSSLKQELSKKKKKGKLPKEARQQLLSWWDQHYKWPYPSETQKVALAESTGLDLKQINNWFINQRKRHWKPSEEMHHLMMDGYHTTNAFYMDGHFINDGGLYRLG
Description: cell_activity.

Series [1] addresses T2, CMV movement protein (CMV-MP) (Cucumber mosaic virus) (UniProt Q83252).
T2 sequence: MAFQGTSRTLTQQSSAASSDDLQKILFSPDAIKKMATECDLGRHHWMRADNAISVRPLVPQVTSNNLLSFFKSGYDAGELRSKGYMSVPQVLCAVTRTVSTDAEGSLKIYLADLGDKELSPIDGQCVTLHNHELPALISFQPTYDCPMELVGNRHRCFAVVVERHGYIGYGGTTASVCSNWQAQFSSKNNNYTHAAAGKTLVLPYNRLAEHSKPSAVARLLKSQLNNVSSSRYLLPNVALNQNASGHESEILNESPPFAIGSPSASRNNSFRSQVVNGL
Description: cell_activity.

For series [2], the target named is T3, CmPSRB1 (recombinant PSRB1) (Cucurbita maxima).
T3 chain: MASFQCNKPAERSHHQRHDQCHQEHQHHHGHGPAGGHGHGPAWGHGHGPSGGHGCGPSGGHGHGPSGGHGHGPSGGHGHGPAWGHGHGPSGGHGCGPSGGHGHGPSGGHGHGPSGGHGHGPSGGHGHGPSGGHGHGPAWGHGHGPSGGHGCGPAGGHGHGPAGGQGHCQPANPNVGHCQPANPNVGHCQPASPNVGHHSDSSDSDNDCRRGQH
Description: cell_activity. Conditions: cell-to-cell movement, binding not directly measured.

The target of series [3] is T3, CmPSRB1 (recombinant PSRB1). Description: EMSA; competition gel shift; 20 mM Hepes pH 7.0, 50 mM KCl, 1 mM EDTA, 30 C. The conditions noted are these: tags: none (native, pET15b, E. coli); 3' 2 nt overhang. The protocol:
Electrophoretic mobility-shift assays were carried out as described (S12). Reactions were assembled on ice in 10 μl of binding buffer (20 mM Hepes, pH 7.0, 50 mM KCl, 1 mM EDTA, 1 mM DTT, and 5% [v/v] glycerol). An equal amount of ³²P end-labeled 25 nt ss- or dsRNA was used in assays with various concentrations of purified and desalted R-CmPSRB1. Reaction mixtures were incubated at 30° C. for 20 min and then placed on ice. Reactions were then resolved on a 5% (v/v) nondenaturing polyacrylamide gel that was pre-run for 30 min at 50 V. Electrophoresis was typically carried out at 4° C. and 200 V. The gel was then dried and autoradiographed.
On the technique in general: In EMSA bound probe runs differently from free probe, usually more slowly.

KN1 RNA (sense): the activity (% injections with movement) with KNOTTED1 (KN1) (CITED includes previous studies (S13), 20 of 22, cited from earlier work) is 91.

Turning to GGAAAACUACCUGUUCCAUGGCCAA, in series [1] (cell-to-cell movement, 0 of 10), the activity (% injections with movement) was found to be 0.

For the molecule KN1 RNA (antisense), in the series with KNOTTED1 (KN1) (CITED includes previous studies (S13), 2 of 10, cited from earlier work), the activity (% injections with movement) is 20.

Turning to CmRINGP RNA (1 kb), the activity (% injections with movement) in series [2] (0 of 8) amounted to 0; in series [1] (cell-to-cell movement, 10 of 10), 100; in the series with KNOTTED1 (KN1) (cell-to-cell movement, 0 of 12), 0.

25 nt dsRNA (overhang type not stated) had an activity (% injections with movement) in series [1] (with FITC-dextran, 0 of 13) of 0.

Take 25 nt ssDNA: the activity (% injections with movement) in series [2] (0 of 14) was found to be 0.

B1: 25 nt dsRNA 3' 2 nt overhang (FK221/FK224) (dsRNA)
RNA 1: GGAAAACUACCUGUUCCAUGGCCAA
RNA 2: GGCCAUGGAACAGGUAGUUUUCCAG
As to B1, the Kd (in general, the constant that tells how readily two partners part at equilibrium) in series [3] turned out to be 30.6 µM.

Source of the values: US20050050588, “Systemic small RNA signaling system in plants” (published 2005).
